Experimental data reported in US8288112B2, “Protein, an antibody and measurement of the protein” (P&M Venge AB, priority 2006, dated 2012).

Experiments:
[1] = Enzyme assay: free fatty acid release from phospholipid substrates (NEFA-C kit); assay type: biochemical; settings: for activity increase by pre-incubation with released materials from PMA-induced neutrophils: partly activated protein 0.5 μg stored for 19 weeks
Method: Enzyme assay. The reaction mixture (40 μl final volume) contained 10 mM substrates, 100 mM phosphate buffer containing 3 mM of sodium azide (NaN3) and 0.5% Triton X-100, pH 7.4, and 0.5 μg of enzyme or as indicated. Since the formation of the product (fatty acid) was linear with time for at least 24 h under the standard conditions, the reaction mixture was incubated for 18-20 h and the reaction was stopped by cooling on ice. Free fatty acid (FFA) was determined by means of the NEFA-C kit (WAKO chemicals, Neuss, Germany) according to the instructions of the manufacturer.
Experiment A: Didecanoyl-PC was incubated with the purified protein at different time of storage and free fatty acid release was measured. Enzymatic reactions were carried out with 0.5 μg of the purified protein for 20 h at 37° C.
Experiment B: Free fatty acid release from phospholipids, didecanoyl-PC (Dideca-PC), dipalmitoyl-PC (Dipalmi-PC), phosphatidylinositol (PI), phosphatidylethanolamine (PE) and lysophosphatidylcholine (Lyso-PC) was measured. Enzymatic reactions were carried out with 0.5 μg of the purified protein (stored at 4° C. for 15 w) for 18-20 h at 37° C.
Experiment C: The purified protein (stored at 4° C. for 16 w) was preincubated at room temperature or 37° C. for 15 min with released materials (0.5 μg) induced from neutrophils by PMA before incubation with Didecanoyl-PC. Enzymatic reactions were carried out with 0.5 μg of the protein for 20 h at 37° C. and free fatty acid release was measured.
Analyses of the pH optimum, Km and Vmax. The purified protein (0.5 μg) was added to tubes containing Didecanoyl-PC at varying pH (4.0-9.0). The Km and Vmax were calculated from Hanes plots of s/vi on Didecanoyl-PC concentration (s).

[2] = Positional specificity (sn-2) assay with radiolabeled phosphatidylcholine; assay type: biochemical; settings: 1-palmitoyl-2-[1-14C]palmitoyl-PC, 20 h at 37° C.
Method: Positional specificity of the purified enzyme was determined using 1-palmitoyl-2-hydroxyl-phosphatidylcholine (1-palmitoyl-2-hydroxyl-PC) and 1-palmitoyl-2-[1-^14C]palmitoyl-phosphatidylcholine (1-palmitoyl-2-[1-^14C]palmitoyl-PC) as substrates. The hydrolyzing activity of the enzyme at the position of sn-1 acyl ester bonds of glycerophospholipids was determined as described above using 1-palmitoyl-2-hydroxyl-PC as substrate. […] Radiolabeled fatty acids were quantified by scintillation counting.
Experiment D: Detection of phopholipase A2 activity. Radioactive phospholipid, 1-palmitoyl-2-[1-^14C]palmitoyl-PC was incubated without (Control) or with 1 μg of the purified protein (stored at 4° C. 16 w) for 20 h at 37° C. and radioactivity was counted as described in the materials and methods section.

pH optimum ([1]; didecanoyl-PC as substrate, incubated at 37° C.): 7.4 | deacylation activity ([1]; freshly purified protein, didecanoyl-PC, dipalmitoyl-PC, PI, PE, Lyso-PC substrates): No activity was detected | deacylation activity on didecanoyl-PC ([1]; purified protein stored at 4° C. for some period of time): removed fatty acid from didecanoyl-PC | deacylation activity on Lyso-PC ([1]; stored purified protein): showed deacylation activity | deacylation activity on PE ([1]; stored purified protein): showed deacylation activity
B1: HPLB-II: Novel phospholipase B from human neutrophil granules; about 130 kDa oligomer of 25 and 45 kDa fragments of hypothetical protein FLJ22662 (protein)
chain 1: MPAEKTVQVKNVMDKNGDAYGFYNNSVKTTGWGILEIRAGYGSQTLSNEIIMFVAGFLEGYLTAPHMNDHYTNLYPQLITKPSIMDKVQDFMEKQDKWTRKNIKEYKTDSFWRHTGYVMAQIDGLYVGAK
chain 2: VLPGFENILFAHSSWYTYAAMLRIYKHWDFNIIDKDTSSSRLSFSSYPGFLESLDDFYILSSGLILLQTTNSVFNKTLLKQVIPETLLSWQRVRVANMMADSGKRWADIFSKYNSGTYNNQYMVLDLKKVKLNHSLDKGTLYIVEQIPTYVEYSEQTDVLRKGYWPSYNVPFHEKIYNWSGYPLLVQKLGLDYSYDLAPRAKIFRRDQGKVTDTASMKYIMRYNNYKKDPYSRGDPCNTICCREDLNSPNPSPGGCYDTKVADIYLASQYTSYAISGPTVQGGLPVFRWDRFNKTLHQGMAEVYNFDFITMKPILK
Vmax ([1]; didecanoyl-PC substrate, Hanes plots, protein stored for 15 weeks): 21.4 nM/min/mg | activity increase by pre-incubation with released materials from PMA-induced neutrophils ([1]; pre-incubation 15 min at 37° C.): ~30% | activity increase by pre-incubation with released materials from PMA-induced neutrophils ([1]; pre-incubation 15 min at room temperature): about 10% | deacylation activity on PI ([1]; stored purified protein): showed deacylation activity | removal of fatty acid from the sn-2 position [2]: removed fatty acid from the sn-2 position
